# Results: IntAct's records for PubMed 15486100
# B1: Transcription factor PIF3 (Arabidopsis thaliana (Mouse-ear cress)), O80536 (parent)
# chain: MPLFELFRLTKAKLESAQDRNPSPPVDEVVELVWENGQISTQSQSSRSRNIPPPQANSSRAREIGNGSKTTMVDEIPMSVPSLMTGLSQDDDFVPWLNHHPSLDGYCSDFLRDVSSPVTVNEQESDMAVNQTAFPLFQRRKDGNESAPAASSSQYNGFQSHSLYGSDRARDLPSQQTNPDRFTQTQEPLITSNKPSLVNFSHFLRPATFAKTTNNNLHDTKEKSPQSPPNVFQTRVLGAKDSEDKVLNESVASATPKDNQKACLISEDSCRKDQESEKAVVCSSVGSGNSLDGPSESPSLSLKRKHSNIQDIDCHSEDVEEESGDGRKEAGPSRTGLGSKRSRSAEVHNLSERRRRDRINEKMRALQELIPNCNKVDKASMLDEAIEYLKSLQLQVQIMSMASGYYLPPAVMFPPGMGHYPAAAAAMAMGMGMPYAMGLPDLSRGGSSVNHGPQFQVSGMQQQPVAMGIPRVSGGGIFAGSSTIGNGSTRDLSGSKDQTTTNNNSNLKPIKRKQGSSDQFCGSS
# B2: Transcription factor PIF4 (Arabidopsis thaliana (Mouse-ear cress)), Q8W2F3-2 (parent)
# chain: MEHQGWSFEENYSLSTNRRSIRPQDELVELLWRDGQVVLQSQTHREQTQTQKQDHHEEALRSSTFLEDQETVSWIQYPPDEDPFEPDDFSSHFFSTMDPLQRPTSETVKPKSSPEPPQVMVKPKACPDPPPQVMPPPKFRLTNSSSGIRETEMEQYSVTTVGPSHCGSNPSQNDLDVSMSHDRSKNIEEKLNPNASSSSGGSSGCSFGKDIKEMASGRCITTDRKRKRINHTDESVSLSDAIGNKSNQRSGSNRRSRAAEVHNLSERVLHRFVYIIYNI
# B3: Transcription factor PIF5 (Arabidopsis thaliana (Mouse-ear cress)), Q84LH8 (parent)
# chain: MEQVFADWNFEDNFHMSTNKRSIRPEDELVELLWRDGQVVLQSQARREPSVQVQTHKQETLRKPNNIFLDNQETVQKPNYAALDDQETVSWIQYPPDDVIDPFESEFSSHFFSSIDHLGGPEKPRTIEETVKHEAQAMAPPKFRSSVITVGPSHCGSNQSTNIHQATTLPVSMSDRSKNVEERLDTSSGGSSGCSYGRNNKETVSGTSVTIDRKRKHVMDADQESVSQSDIGLTSTDDQTMGNKSSQRSGSTRRSRAAEVHNLSERRRRDRINERMKALQELIPHCSRTDKASILDEAIDYLKSLQMQLQVMWMGSGMAAAAAAAASPMMFPGVQSSPYINQMAMQSQMQLSQFPVMNRSAPQNHPGLVCQNPVQLQLQAQNQILSEQLARYMGGIPQMPPAGNQMQTVQQQPADMLGFGSPAGPQSQLSAPATTDSLHMGKIG
# B4: Transcription factor PIF6 (Arabidopsis thaliana (Mouse-ear cress)), Q8L5W7 (parent)
# chain: MMFLPTDYCCRLSDQEYMELVFENGQILAKGQRSNVSLHNQRTKSIMDLYEAEYNEDFMKSIIHGGGGAITNLGDTQVVPQSHVAAAHETNMLESNKHVDDSETLKASSSKRMMVDYHNRKKIKFIPPDEQSVVADRSFKLGFDTSSVGFTEDSEGSMYLSSSLDDESDDARPQVPARTRKALVKRKRNAEAYNSPERNQRNDINKKMRTLQNLLPNSHKDDNESMLDEAINYMTNLQLQVQMMTMGNRFVTPSMMMPLGPNYSQMGLAMGVGMQMGEQQFLPAHVLGAGLPGINDSADMLRFLNHPGLMPMQNSAPFIPTENCSPQSVPPSCAAFPNQIPNPNSLSNLDGATLHKKSRKTNR
# Variants of: B1
# Conditions: with phyb_arath PHYB
row,Variant,effect of a mutation on the interaction
1,E31A;G37A,decreasing interaction

# Variants of: B2
# Conditions: with phyb_arath PHYB
row,Variant,effect of a mutation on the interaction
1,G35A,decreasing interaction
2,E29A;G35A,decreasing interaction

# Variants of: B3
# Conditions: with phyb_arath PHYB
row,Variant,effect of a mutation on the interaction
1,E31A,decreasing interaction
2,G37A,decreasing interaction
3,L32A,decreasing interaction
4,Q38A,decreasing interaction

# Variants of: B4
# Conditions: with phyb_arath PHYB
row,Variant,effect of a mutation on the interaction
1,E19A;G25A,decreasing interaction
